# Measured values as given in US20080318246A1, “Deeply quenched enzyme sensors” (The Albert Einstein College of Medicine of Yeshiva …, priority 2007, published 2008).
# Tests used:
# 14-3-3τ = 14-3-3τ (UniProt P27348); assay: cell-based or functional assay
# [1] = molecular target: cAMP-dependent protein kinase (PKA), murine catalytic subunit (murine) (UniProt P05132); assay: cell-based or functional assay
# 14-3-3τ, sequence (P27348 whole entry): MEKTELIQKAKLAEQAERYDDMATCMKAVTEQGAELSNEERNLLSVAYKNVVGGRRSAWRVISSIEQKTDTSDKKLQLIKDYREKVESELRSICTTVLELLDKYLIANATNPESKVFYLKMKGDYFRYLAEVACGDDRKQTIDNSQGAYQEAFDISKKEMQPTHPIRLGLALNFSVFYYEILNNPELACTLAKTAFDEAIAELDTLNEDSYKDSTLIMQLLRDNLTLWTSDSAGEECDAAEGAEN
substance,measurement,setting,value
"P2, Ac-GRTGRRDap(Pyr)SYP-amide, serine-phosphorylated by PKA in the assay (peptide)","% Fluorescence Enhancement on phosphorylation, no quenching dye",14-3-3τ,51%
same,PKA-induced fluorescence change; Alizarin Red 5x,14-3-3τ,1.59 fold
same,PKA-induced fluorescence change; Alizarin Red 10x,14-3-3τ,1.38 fold
same,PKA-induced fluorescence change; Alizarin Red 25x,14-3-3τ,1.37 fold
same,PKA-induced fluorescence change; Alizarin Red 50x,14-3-3τ,1.3 fold
same,PKA-induced fluorescence change; Aniline Blue WS 5x,14-3-3τ,1.85 fold
same,PKA-induced fluorescence change; Aniline Blue WS 10x,14-3-3τ,2.48 fold
same,PKA-induced fluorescence change; Aniline Blue WS 25x,14-3-3τ,2.52 fold
same,PKA-induced fluorescence change; Aniline Blue WS 50x,14-3-3τ,1.83 fold
same,PKA-induced fluorescence change; Chlorazol Black E 5x,14-3-3τ,2.26 fold
same,PKA-induced fluorescence change; Chlorazol Black E 10x,14-3-3τ,2.84 fold
same,PKA-induced fluorescence change; Chlorazol Black E 25x,14-3-3τ,0.6 fold
same,PKA-induced fluorescence change; Chlorazol Black E 50x,14-3-3τ,0.35 fold
same,PKA-induced fluorescence change; Eriochrome Black T 5x,14-3-3τ,1.46 fold
same,PKA-induced fluorescence change; Eriochrome Black T 10x,14-3-3τ,1.42 fold
same,PKA-induced fluorescence change; Eriochrome Black T 25x,14-3-3τ,1.13 fold
same,PKA-induced fluorescence change; Eriochrome Black T 50x,14-3-3τ,3.71 fold
same,PKA-induced fluorescence change; Evans Blue 5x,14-3-3τ,1.92 fold
same,PKA-induced fluorescence change; Evans Blue 10x,14-3-3τ,1.37 fold
same,PKA-induced fluorescence change; Evans Blue 25x,14-3-3τ,1.01 fold
same,PKA-induced fluorescence change; Evans Blue 50x,14-3-3τ,0.94 fold
same,PKA-induced fluorescence change; Ponceau S 5x,14-3-3τ,1.93 fold
same,PKA-induced fluorescence change; Ponceau S 10x,14-3-3τ,1.92 fold
same,PKA-induced fluorescence change; Ponceau S 25x,14-3-3τ,4.61 fold
same,PKA-induced fluorescence change; Ponceau S 50x,14-3-3τ,6.57 fold
same,PKA-induced fluorescence change; Reactive Blue 2 5x,14-3-3τ,1.99 fold
same,PKA-induced fluorescence change; Reactive Blue 2 10x,14-3-3τ,2.08 fold
same,PKA-induced fluorescence change; Reactive Blue 2 25x,14-3-3τ,5.66 fold
same,PKA-induced fluorescence change; Reactive Blue 2 50x,14-3-3τ,6.3 fold
same,PKA-induced fluorescence change; Rose Bengal 5x,14-3-3τ,2.58 fold
same,PKA-induced fluorescence change; Rose Bengal 10x,14-3-3τ,2.87 fold
same,PKA-induced fluorescence change; Rose Bengal 25x,14-3-3τ,1.58 fold
same,PKA-induced fluorescence change; Rose Bengal 50x,14-3-3τ,0.72 fold
same,PKA-induced fluorescence change; Tartrazine 5x,14-3-3τ,1.41 fold
same,PKA-induced fluorescence change; Tartrazine 10x,14-3-3τ,1.61 fold
same,PKA-induced fluorescence change; Tartrazine 25x,14-3-3τ,1.82 fold
same,PKA-induced fluorescence change; Tartrazine 50x,14-3-3τ,2.51 fold
same,PKA-induced fluorescence change; Trypan Blue 5x,14-3-3τ,2.2 fold
same,PKA-induced fluorescence change; Trypan Blue 10x,14-3-3τ,2.81 fold
same,PKA-induced fluorescence change; Trypan Blue 25x,14-3-3τ,5.11 fold
same,PKA-induced fluorescence change; Trypan Blue 50x,14-3-3τ,6.03 fold
same,"Phosphorylation-induced fluorescence fold-change; P2/Ponceau S (1:50), plate reader - bottom read",14-3-3τ,7 fold
same,"Phosphorylation-induced fluorescence fold-change; P2/Ponceau S (1:50), plate reader - top read",14-3-3τ,15 fold
same,"Phosphorylation-induced fluorescence fold-change; P2/Ponceau S (1:50), spectrofluorimeter",14-3-3τ,21 fold
PKI (14-22) peptide,"IC50 of PKA activity (Deep Quench assay, P2/Ponceau S, 1 mM ATP)",[1],1.1 µM
same,IC50 of PKA activity (standard radioactive ATP method),[1],1.6 µM
"P3, Ac-GRTDap(Pyr)RRFSYP-amide, serine-phosphorylated by PKA in the assay (peptide)","% Fluorescence Enhancement on phosphorylation, no quenching dye",14-3-3τ,19%
same,PKA-induced fluorescence change; Alizarin Red 5x,14-3-3τ,1.28 fold
same,PKA-induced fluorescence change; Alizarin Red 10x,14-3-3τ,1.21 fold
same,PKA-induced fluorescence change; Alizarin Red 25x,14-3-3τ,1.17 fold
same,PKA-induced fluorescence change; Alizarin Red 50x,14-3-3τ,1.05 fold
same,PKA-induced fluorescence change; Aniline Blue WS 5x,14-3-3τ,1.5 fold
same,PKA-induced fluorescence change; Aniline Blue WS 10x,14-3-3τ,2.17 fold
same,PKA-induced fluorescence change; Aniline Blue WS 25x,14-3-3τ,3.79 fold
same,PKA-induced fluorescence change; Aniline Blue WS 50x,14-3-3τ,0.99 fold
same,PKA-induced fluorescence change; Chlorazol Black E 5x,14-3-3τ,1.79 fold
same,PKA-induced fluorescence change; Chlorazol Black E 10x,14-3-3τ,0.71 fold
same,PKA-induced fluorescence change; Chlorazol Black E 25x,14-3-3τ,0.92 fold
same,PKA-induced fluorescence change; Chlorazol Black E 50x,14-3-3τ,0.25 fold
same,PKA-induced fluorescence change; Eriochrome Black T 5x,14-3-3τ,1.1 fold
same,PKA-induced fluorescence change; Eriochrome Black T 10x,14-3-3τ,1.02 fold
same,PKA-induced fluorescence change; Eriochrome Black T 25x,14-3-3τ,0.58 fold
same,PKA-induced fluorescence change; Eriochrome Black T 50x,14-3-3τ,0.31 fold
same,PKA-induced fluorescence change; Evans Blue 5x,14-3-3τ,1.1 fold
same,PKA-induced fluorescence change; Evans Blue 10x,14-3-3τ,1.06 fold
same,PKA-induced fluorescence change; Evans Blue 25x,14-3-3τ,1.06 fold
same,PKA-induced fluorescence change; Evans Blue 50x,14-3-3τ,0.99 fold
same,PKA-induced fluorescence change; Ponceau S 5x,14-3-3τ,1.81 fold
same,PKA-induced fluorescence change; Ponceau S 10x,14-3-3τ,2.26 fold
same,PKA-induced fluorescence change; Ponceau S 25x,14-3-3τ,2.75 fold
same,PKA-induced fluorescence change; Ponceau S 50x,14-3-3τ,2.88 fold
same,PKA-induced fluorescence change; Reactive Blue 2 5x,14-3-3τ,1.48 fold
same,PKA-induced fluorescence change; Reactive Blue 2 10x,14-3-3τ,2.29 fold
same,PKA-induced fluorescence change; Reactive Blue 2 25x,14-3-3τ,3.56 fold
same,PKA-induced fluorescence change; Reactive Blue 2 50x,14-3-3τ,1.68 fold
same,PKA-induced fluorescence change; Rose Bengal 5x,14-3-3τ,2.7 fold
same,PKA-induced fluorescence change; Rose Bengal 10x,14-3-3τ,1.98 fold
same,PKA-induced fluorescence change; Rose Bengal 25x,14-3-3τ,1.13 fold
same,PKA-induced fluorescence change; Rose Bengal 50x,14-3-3τ,0.97 fold
same,PKA-induced fluorescence change; Tartrazine 5x,14-3-3τ,1.19 fold
same,PKA-induced fluorescence change; Tartrazine 10x,14-3-3τ,1.34 fold
same,PKA-induced fluorescence change; Tartrazine 25x,14-3-3τ,1.47 fold
same,PKA-induced fluorescence change; Tartrazine 50x,14-3-3τ,1.02 fold
same,PKA-induced fluorescence change; Trypan Blue 5x,14-3-3τ,2.23 fold
same,PKA-induced fluorescence change; Trypan Blue 10x,14-3-3τ,2.72 fold
same,PKA-induced fluorescence change; Trypan Blue 25x,14-3-3τ,1.91 fold
same,PKA-induced fluorescence change; Trypan Blue 50x,14-3-3τ,1.6 fold
